In the supplement of paper PMC10724198:
± gives the standard deviation of the averaged measurements.

System: Saccharomyces cerevisiae
Assay: protein stability index of tFT-peptide fusion (C-terminal peptide) (PSI (0-1 scale)); higher = more stable (slower turnover)
Conditions: genetic background: wild type; temperature: 30 C
Description: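 Multiplexed protein stability (MPS) profiling in S. cerevisiae. Random 12-aa peptides (tFT-X12 library) are fused to the C-terminus of a sfGFP-mCherry tandem fluorescent timer, after mCherry and a GGGS linker. Cells are FACS-sorted into 8 mCherry/sfGFP bins and deep-sequenced. The protein stability index (PSI) is the read-weighted bin average, scaled from 0 (unstable) to 1 (stable). Only peptides with >10 reads are reported; cells were grown at 30 °C in SC-His with glucose.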
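Also: PSI is a weighted mean of sequencing reads over stability bins, variants kept only with over 10 reads, mCherry proximal and sfGFP distal, peptide attached via GGGS linker.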

Row | Sequence | protein stability index
1 | FPLLAPAVSPHT | 0.662 ± 0.071
2 | GHRAEGMWSGGL | 0.751 ± 0.098
3 | VRVSPDVYGSFM | 0.5897 ± 0.0057
4 | VCAASAGGARAG | 0.6213 ± 0.0025
5 | PPPSSSLAAPPT | 0.677 ± 0.026
6 | SGRTLLPPSLGD | 0.606 ± 0.025
7 | EGRFRNGRAVSG | 0.673 ± 0.011
8 | QREYHENKIKYI | 0.563 ± 0.066
9 | LANAGLVLPRIP | 0.679 ± 0.0071
10 | FIWRFYSLPLGC | 0.623 ± 0.069
11 | VAVIGAPPGNSR | 0.672 ± 0.029
12 | PPPAPPLSPPPH | 0.653 ± 0.038
13 | ALPLPAPSSIPS | 0.712 ± 0.029
14 | CLAAHARFSLRL | 0.65 ± 0.05
15 | GGVGGAGGRNRG | 0.674 ± 0.014
16 | SGGQGCGGGWNV | 0.708 ± 0.011
17 | SLSSVAYAIIIL | 0.561 ± 0.021
18 | HPPVFFSPCGIL | 0.634 ± 0.033
19 | SPHPLPRPTTRP | 0.708 ± 0.12
20 | MDKIKKNYSQIG | 0.693 ± 0.036
21 | KNQRTLKSPQEV | 0.6387 ± 0.0055
22 | NGGERQDGGKHR | 0.648 ± 0.034
23 | PAPSPLVLFFGF | 0.692 ± 0.03
24 | PPPPLPSPAPRP | 0.735 ± 0.032
25 | FSGGGRGLVGEV | 0.7 ± 0.039

Row | Sequence | protein stability index
26 | RLRCRYLSSTYY | 0.712 ± 0.0078
27 | SGKKKVSAQRII | 0.6709 ± 0.0023
28 | GGRGWRSGTEGE | 0.675 ± 0.013
29 | TRRLILSPIRHF | 0.636 ± 0.015
30 | VGGCRVRDVAGE | 0.686 ± 0.042
31 | CWQMTWSEGLGN | 0.687 ± 0.038
32 | FALPPPPHLNPP | 0.6248 ± 0.0021
33 | GYGNQLILAISN | 0.576 ± 0.021
34 | NYRPAHSFGVIS | 0.725 ± 0.018
35 | LFPPAFSAFLPF | 0.725 ± 0.024
36 | VYRRWIKGKGRV | 0.675 ± 0.026
37 | LPPASHLPYLVL | 0.717 ± 0.019
38 | EAEEVGRVVLKG | 0.643 ± 0.067
39 | KVEVKRMKKEVK | 0.668 ± 0.014
40 | GRGRGEVMNGRG | 0.574 ± 0.0044
41 | NRCIRIQETVRI | 0.619 ± 0.053
42 | SYLFRLLFATLP | 0.601 ± 0.033
43 | PPSQLWNSPSPC | 0.767 ± 0.064
44 | MVGASFAILGFI | 0.699 ± 0.014
45 | SLDQRPSLSFKR | 0.663 ± 0.015
46 | ATPNRSKNKHDT | 0.679 ± 0.0011
47 | RWLEIQKRRGRI | 0.643 ± 0.1
48 | KQKKKSQTKTRK | 0.718 ± 0.034
49 | NKFNTINQNREV | 0.678 ± 0.04
50 | TGVFFPPQLPLP | 0.69 ± 0.023

Row | Sequence | protein stability index
51 | PSPPAPPRGLLP | 0.704 ± 0.03
52 | WFVVRGGLSPGG | 0.695 ± 0.038
53 | HVGEVESGGMGG | 0.707 ± 0.03
54 | SSPTSSAPPPFL | 0.697 ± 0.022
55 | SLYRKTLCMAYS | 0.558 ± 0.019
56 | VWLGGGVRLGRL | 0.738 ± 0.059
57 | SNAIKTEESKGE | 0.734 ± 0.023
58 | TIGREENKIANI | 0.651 ± 0.016
59 | RTLNILCGGALR | 0.691 ± 0.049
60 | PLGLPLPCPFLL | 0.683 ± 0.063
61 | YQCPASSPVLSA | 0.7191 ± 0.005
62 | GTASGGPKVSLF | 0.656 ± 0.088
63 | GLPPLLSPVPLR | 0.646 ± 0.057
64 | GGGLVLSGWCVW | 0.751 ± 0.026
65 | PLGFFHKQSATV | 0.666 ± 0.023
66 | YQEIIKRQTGNK | 0.745 ± 0.012
67 | PFPFLPSPIFPQ | 0.749 ± 0.057
68 | MLPPRRAPFPPP | 0.735 ± 0.018
69 | APFAPRRPLPPP | 0.612 ± 0.094
70 | PPPPTSFSPGTL | 0.649 ± 0.043
71 | VSPPLHFLPLHF | 0.6661 ± 0.004
72 | VASITEIRKKGR | 0.629 ± 0.022
73 | WKEMRKKVGRGK | 0.696 ± 0.056
74 | LFGFFLECCFCT | 0.599 ± 0.052
75 | GGCGYGELWAWA | 0.7908 ± 0.0038

Row | Sequence | protein stability index
76 | SGVHFFLRTGAL | 0.692 ± 0.016
77 | PAPASDYLRGRR | 0.691 ± 0.049
78 | KKKNNEKLEEKK | 0.687 ± 0.0098
79 | GGKLNRAGRATG | 0.697 ± 0.088
80 | YDVGSKAVLTLE | 0.566 ± 0.0074
81 | YFAQCLDFFSLV | 0.663 ± 0.019
82 | WPWLHSVACLYS | 0.626 ± 0.09
83 | DSSAFVPATILD | 0.705 ± 0.026
84 | DRSRLWSHPCPG | 0.647 ± 0.0098
85 | QPLSFAYMPPLS | 0.653 ± 0.033
86 | YLLKRSQSLLII | 0.5 ± 0.014
87 | WPSCKVHSPSPS | 0.675 ± 0.016
88 | RISWLKEATAIK | 0.689 ± 0.019
89 | EVGLSVLLPGGG | 0.675 ± 0.022
90 | VSRGGVAYGRVG | 0.742 ± 0.049
91 | KGVLTKRAVPST | 0.703 ± 0.025
92 | LLSPQPPSSPLP | 0.69 ± 0.015
93 | KKKKKGASEDNI | 0.786 ± 0.1
94 | SPPPLHPPPPAL | 0.637 ± 0.046
95 | DERTTLMRGNNV | 0.651 ± 0.017
96 | HLSPAPPPPSAP | 0.706 ± 0.11
97 | SNTSRIQGGWLK | 0.699 ± 0.18
98 | NFLPSAARTRTP | 0.6758 ± 0.0023
99 | VAVGIVGGWWGV | 0.843 ± 0.11
100 | DWVYISAGGRYA | 0.657 ± 0.017

Row | Sequence | protein stability index
101 | YCGCSLSEMSWV | 0.741 ± 0.037
102 | PHRPCPPPAPPP | 0.658 ± 0.0096
103 | SPTRALYISFFY | 0.655 ± 0.075
104 | STVGRFPLSFHH | 0.726 ± 0.062
105 | SFLRHSCFPSVP | 0.736 ± 0.023
106 | YTYPINPLDQTR | 0.7196 ± 0.0027
107 | GEIMGEVARREK | 0.66 ± 0.048
108 | CGVEERRIGGVC | 0.725 ± 0.034
109 | SKRQQQKITAQE | 0.67 ± 0.086
110 | ESIEVGTGDWVG | 0.653 ± 0.013
111 | DSVSLPYVSRPL | 0.768 ± 0.041
112 | VLTPLPWSRCSP | 0.7017 ± 0.0061
113 | IEIGTEEGKCTT | 0.707 ± 0.053
114 | RKRKEKSLKAKL | 0.784 ± 0.084
115 | DSNLAVHRWYIS | 0.573 ± 0.018
116 | KTTTQRQEETAE | 0.605 ± 0.033
117 | RGWRYRAEGFRG | 0.663 ± 0.022
118 | KQKNKNNVKQPN | 0.693 ± 0.012
119 | KQKRQLPRKNET | 0.639 ± 0.0092
120 | YCPPHRCEAECI | 0.657 ± 0.06
121 | TYRLLAEPTPPA | 0.702 ± 0.018
122 | WVGSWYVATGEA | 0.754 ± 0.063
123 | GGDARGRGGMPD | 0.712 ± 0.12
124 | FPPIDLPPPSPS | 0.687 ± 0.027
125 | CKGSGLGGGVVS | 0.583 ± 0.017

Row | Sequence | protein stability index
126 | SCRVVSGLAIWW | 0.734 ± 0.15
127 | GGCSCLGVGCLS | 0.675 ± 0.045
128 | PPPSYSPSLSLL | 0.63132 ± 0.00041
129 | KKQRKRKMTERG | 0.742 ± 0.11
130 | PPSPSPHPPPSH | 0.842 ± 0.15
131 | RQKEVSISYCWI | 0.646 ± 0.12
132 | IGFLGYTRSIRN | 0.617 ± 0.096
133 | QIISSVFEATSY | 0.606 ± 0.037
134 | LELTTIRHNHEL | 0.695 ± 0.029
135 | GIGGNWAVSRNC | 0.73 ± 0.12
136 | CDFASTDSLLGG | 0.702 ± 0.013
137 | LSPALSFVLTIW | 0.497 ± 0.011
138 | SGEVGVGHWVGG | 0.6812 ± 0.0053
139 | VTLFGVFQGFVG | 0.709 ± 0.02
140 | PPRPRPPLPALP | 0.764 ± 0.11
141 | RTRSKVSVSFND | 0.728 ± 0.043
142 | PLPPVPRTPTPR | 0.662 ± 0.075
143 | GVVWMSCGGWGG | 0.764 ± 0.028
144 | GPYPPFSPPPLS | 0.697 ± 0.072
145 | LDKLLFIFNCGC | 0.66 ± 0.044
146 | APIWRSLRGLAI | 0.555 ± 0.18
147 | VATGVFADPMMC | 0.667 ± 0.11
148 | LSRHSRSILPSL | 0.726 ± 0.056
149 | DICYGVALSQVE | 0.676 ± 0.045
150 | SGEVFEDLRAPE | 0.743 ± 0.038

Row | Sequence | protein stability index
151 | SCLHRDLSDTCQ | 0.66536 ± 0.00012
152 | PLLPRSILSATG | 0.641 ± 0.043
153 | NMYQQIESEYSK | 0.676 ± 0.045
154 | PPPAPPPHRDLS | 0.709 ± 0.057
155 | RFDGLTTALDSV | 0.669 ± 0.04
156 | CEAGAGTGGADL | 0.674 ± 0.018
157 | SLSFPPNTFSFP | 0.738 ± 0.059
158 | SPFLPAHPPPTA | 0.714 ± 0.065
159 | GGALTADTTIAP | 0.662 ± 0.087
160 | PPHNPTPSPTTP | 0.719 ± 0.11
161 | WRAVVVSGTVAY | 0.578 ± 0.025
162 | PSRKFYSRHFPP | 0.671 ± 0.028
163 | LTIEFSARLGNA | 0.663 ± 0.03
164 | RQLSSFSDRSGS | 0.715 ± 0.022
165 | AVLRVCHVEVVP | 0.634 ± 0.031
166 | DLSPPLPPPAHP | 0.674 ± 0.044
167 | GCLPSGTPAWFG | 0.751 ± 0.052
168 | LLFSPTRVFLRY | 0.49 ± 0.053
169 | SGSFPSLALLSS | 0.642 ± 0.042
170 | KKMSGNKLKNKN | 0.643 ± 0.013
171 | GSGSVWQGLGSG | 0.711 ± 0.032
172 | SFARPSFVRPFA | 0.694 ± 0.017
173 | KKKEGRMKQIYE | 0.688 ± 0.0088
174 | VLRRADLGYPRV | 0.663 ± 0.048
175 | CVPLSAIFSAFT | 0.77 ± 0.022

Row | Sequence | protein stability index
176 | KKKKNKKKNKKK | 0.669 ± 0.011
177 | RYLDPPLPLPRT | 0.6921 ± 0.0046
178 | PVRDGFSLCFVL | 0.761 ± 0.14
179 | LGPRVGDPDGRF | 0.742 ± 0.019
180 | GVFCHILAFLWC | 0.512 ± 0.019
181 | LPPLPPPPPLPL | 0.688 ± 0.11
182 | PRLFPSSPLPFN | 0.822 ± 0.018
183 | SARWTSRIQDRS | 0.652 ± 0.02
184 | VAAFGGGATNGV | 0.736 ± 0.029
185 | KKKNQLSKVTKR | 0.702 ± 0.031
186 | YVIAMVYGAPWS | 0.60667 ± 0.00018
187 | LPLLALPLALHP | 0.653 ± 0.0077
188 | FLFPTLSPITGC | 0.612 ± 0.05
189 | LLPLAPSPPPPH | 0.71 ± 0.042
190 | SPPAPPLALPPP | 0.737 ± 0.057
191 | GKYEALGRFSPG | 0.71 ± 0.015
192 | CYFKTIYRNMEY | 0.541 ± 0.032
193 | WAPHLPQPSRCS | 0.743 ± 0.062
194 | RGSPFTAWSVLR | 0.753 ± 0.019
195 | KKKDKKVKRRKV | 0.769 ± 0.031
196 | SGHFGTATTLCF | 0.749 ± 0.011
